Measured values as given in JP2017014112A (dated 2017).

Columns and labels:
[1] = molecular target: T1, サバイビン (antigen of the competitive ELISA) (UniProt O15392 1-142); assay: competitive ELISA: fixed VHH equilibrated with varied survivin, free VHH caught on antigen-coated plate, anti-His detection
T1 construct: also called サバイビン1010; 抗原

[2] = molecular target: T2, サバイビンとカルモジュリンとの融合タンパク質 (catalogue no. SUR0801, ATGen) (Homo sapiens (Human), UniProt O15392 1-142, fluorescein-labelled when used as prey in the pull-down); assay: SPR, Biacore X100, fusion captured through biotin-CBP on SA chip, VHH 6.25-100 nM as analyte, single cycle
T2 construct: Bought fusion protein; Fluorescein-labelled in the pull-down; unlabelled and captured through biotin-CBP on the SA chip in the Biacore run; also called 融合タンパク質200; survivin-calmodulin fusion protein
T2 sequence (O15392 whole entry, the tested form may be a part): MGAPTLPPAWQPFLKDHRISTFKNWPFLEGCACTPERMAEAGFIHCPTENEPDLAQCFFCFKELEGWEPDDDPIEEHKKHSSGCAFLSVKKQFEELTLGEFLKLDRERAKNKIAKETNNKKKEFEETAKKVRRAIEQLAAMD

カルモジュリン = カルモジュリン (UniProt P0DP23 2-149); assay: pull-down with bead-bound VHH, fluorescein-labelled prey, SDS-PAGE

T1 sequence (O15392 whole entry): as the sequence (O15392 whole entry, the tested form may be a part) above

B1: 精製したVHH抗体(R7-A), C-terminal His×6, secreted from Brevibacillus (VHH)
VHH: EVQLVESGGGSVQAGGSLRLSCAASGVSNTDMIMIWFRQAPGKEREGVLAAIYKNSTYYADSVKGRFTISQDNAKNTVYLQMNSLKPEDTAIYYCAAIRAVIGRHIRPHIYWGQGTQVTVGG
notes: Expressed with the Brevibacillus secretion system and purified on Ni Sepharose
Question: Which results are given for B1?
Answer: Kd [1]: 516 nM; Kd [2]: 25.1 nM

B2: R7-AのDNA断片にコードされるVHH抗体 (cell-free translated, on the nucleic acid linker) (VHH)
VHH: EVQLVESGGGSVQAGGSLRLSCAASGVSNTDMIMIWFRQAPGKEREGVLAAIYKNSTYYADSVKGRFTISQDNAKNTVYLQMNSLKPEDTAIYYCAAIRAVIGRHIRPHIYWGQGTQVTVGG
modifications: C-terminus covalently bound to the puromycin of the nucleic acid linker (linker carries biotin and fluorescein)
notes: Made in rabbit reticulocyte lysate and held on streptavidin magnetic beads through the linker for the pull-down; also called VHH抗体タンパク質120
Question: Does B2 bind (カルモジュリン)?
Answer: Result: no binding (tested: 200 nM)

B3: R7-EのDNA断片にコードされるVHH抗体 (VHH)
VHH: EVQLVESGGGSVQAGGSLRLSCAASGVSNTDMIMIWFRQAPGKEREGVLAAIYKNSTYYADSVKGRFTISQDNAKNTVYLQMNSLKPEDTAVYYCAAISAVIGRHIRPHIYWGQGTQVTVGG
modifications: C-terminus covalently bound to the puromycin of the nucleic acid linker (linker carries biotin and fluorescein)
notes: Cell-free translated, on the nucleic acid linker, as bait in the pull-down
Question: Does B3 bind (カルモジュリン)?
Answer: Result: no binding (tested: 500 nM in the protein mix)

B4: R7-BのDNA断片にコードされるVHH抗体 (VHH)
VHH: EVQLVESGGGSVQAGGSLRLSCAASGIPIQDSVVLWFRQAPGKEREGVLAAKYRSPTYYADSVKGRFTISQDNAKNTVYLQMNSLKPEDTAIYYCAAIRAVIGRHIRPHIYWGQGTQVTVGG
modifications: C-terminus covalently bound to the puromycin of the nucleic acid linker (linker carries biotin and fluorescein)
notes: as for B3
Question: Does B4 bind (カルモジュリン)?
Answer: Result: no binding (tested: 200 nM alone; 500 nM in the protein mix)

B5: R7-DのDNA断片にコードされるVHH抗体 (VHH)
VHH: EVQLVESGGGSVQAGGSLRLSCAASGVSNTDMIMIWFRQAPGKEREGVLAAIYKNSTYYADSVKGRFTISQDNAKNTVYLQMNSLKPEDTAIYYCAAIAFNGHNHPILTIYWGQGTQVTVGG
modifications: C-terminus covalently bound to the puromycin of the nucleic acid linker (linker carries biotin and fluorescein)
notes: as for B3
Question: Does B5 bind (カルモジュリン)?
Answer: Result: no binding (tested: 500 nM in the protein mix)
